Test results published in US9809627B2, “Cyclized transthyretin peptide and methods of use therefor” (Wisconsin Alumni Research Foundation, priority 2014, dated 2017).
Entries after “also recorded” stand apart in the source; their conditions may differ. Where no end group is shown, it is not given here. [ ]: non-standard residue; d: D form.

Columns and labels:
[1] = Peptide self-association by PICUP cross-linking and gel electrophoresis; type: physicochemical; conditions: PICUP cross-linking, gel electrophoresis
Procedure: Peptides were also cross-linked by PICUP and analyzed for self-association. Twenty microliters of peptides at 36 μM in PBSA was incubated for 1 hr at 37° C. and cross-linked. Cross-linked samples were then heated at 95° C. for 5 min and separated on a 10-20% Tris-Tricine gradient gel. Peptides were visualized by silver staining (SilverStain Kit, Pierce, Rockford, Ill.).

[2] = system: primary cortical neuronal cells; assay: In vitro cellular toxicity of Aβ (1-42), MTS assay; type: cell-based, mice; conditions: for protection against Aβ toxicity: 10 μM Aβ
Procedure: Aβ toxicity was assessed as described in detail previously (Yang et al., 2013; Cho et al., 2014). Briefly, the primary cortical neuronal cells were cultured from embryonic 15.5 day mice and were maintained in neurobasal media till they are matured. Aβ (1-42) (American Peptide, Sunnyvale, Calif.) at 1 mg/mL in PBS was diluted to 10 μM without or with peptides as previously described (Cho et al., 2014). At 6 days in vitro (DIV), the cells were treated with either Aβ alone or Aβ incubated with different doses of mTTR and peptides. Appropriate vehicle and controls were run along with the treatments. At 8 DIV, the neurons were incubated with MTS reagent (Promega) as per manufacturer protocol for 2-3 hrs and absorbance was measured at 490 nm.

[3] = biological target: T1, Aβ (1-40) (Homo sapiens, UniProt P05067); assay: Photoinduced cross-linking (PICUP) of Aβ and peptides; type: binding; conditions: for interaction with Aβ (shift in cross-linked Aβ size distribution): pre-aggregated Aβ, 10:1 molar excess of Aβ, Western blot 4G8
T1 construct: Aβ (1-40) was purchased from Anaspec, Inc. (Fremont, Calif.) as lyophilized powder; purchased Anaspec, Inc. (Fremont, Calif.)
Procedure: (§1) Aβ (1-40) was purchased from Anaspec, Inc. (Fremont, Calif.) as lyophilized powder. For dynamic light scattering, ThT fluorescence assay, TEM, NTA measurement and filtration/sedimentation assay, Aβ was dissolved in 50% ACN, re-lyophilized, and reconstituted in 8M urea at 12 mg/mL. Aβ stock was then aliquoted, snap-frozen in ethanol with dry ice, and stored at −80° C. For PICUP and proteolytic fragmentation analysis, lyophilized Aβ was dissolved in prechilled hexafluoroisopropanol (HFIP, Acros Organics, Geel, Belgium), aliquoted, dried and stored at −20° C. as previously described (Cho et al., 2014). Aβ sample was prepared right before use by dissolving dried peptides in 50 mM NaOH and diluting into phosphate-buffered saline (PBSA) (10 mM Na2HPO4/NaH2PO4, 150 mM NaCL and 0.02% NaN3 (pH 7.4)) to 30 μM as previously described (Cho et al., 2014).
Aβ prepared with HFIP/NaOH treatment at 30 μM as described was mixed with peptides to a final concentration of 24 μM Aβ and 2.4 μM peptides. Aβ stock was used immediately (freshly prepared) or after incubation for 24 hr at 37° C. (1 day pre-aggregated). Samples of Aβ with and without peptides were incubated for 1 hr at 37° C. and cross-linked by photo-induced cross-linking method as previously described (Cho et al., 2014). Cross-linked samples were then separated on a 10-20% Tris-Tricine gradient gel (Iinvotrogen, Carlsbad, Calif.), transferred onto a 0.2 μm poly(vinylidene difluoride) (PVDF) membrane and detected by monoclonal mouse anti-Aβ antibody 4G8 (Covance, Princeton, N.J.) as previously described (Cho et al., 2014).

[4] = biological target: T1, Aβ (1-40); assay: Dynamic light scattering of Aβ aggregate growth; type: biochemical; conditions: 140 μM Aβ
Procedure: as §1
Aβ stock in 8M urea prepared as stated above was thawed and sonicated for 2 min before being diluted into PBSA. Aβ alone (140 μM) or mixed with peptides (14 μM) was filtered through […] filter directly into a light scattering cuvette and placed into a bath of the index-matching solvent decahydronaphthalene with temperature controlled to 37° C. Light scattering data were collected using a Brookhaven BI-200SM system (Brookhaven Instruments Corp., Holtsville, N.Y.) and an Innova 90C-5 argon laser (Coherent, Santa Clara, Calif.) operating at 488 nm and 150 mW. The average scattering intensity at 90° was measured over 10 hr and data were normalized to the total mass concentration. The z-averaged hydrodynamic diameter was determined from the autocorrelation function using the method of cummulants.

[5] = biological target: T1, Aβ (1-40); assay: Proteolytic fragmentation assay of Aβ with peptides (Proteinase K); type: binding; conditions: 3:1 molar excess of peptides, detection by 4G8
Procedure: as §1
The proteolytic fragmentation assay of Aβ with peptides was performed as previously described in detail (Cho et al., 2014). Briefly, Aβ alone (20 μM) or with peptide (60 μM) was incubated for 24 hr at 37° C. Proteinase K (Promega, Madison, Wis.) was added to the samples at a final concentration of 0.5 μg/mL and samples were dotted onto a 0.45 μm nitrocellulose membrane (Pierce) after incubation for 0, 5, 10, 20, 30, 40, 50, 60, 90 and 120 min. Membranes were then reacted with monoclonal antibodies against Aβ (6E10, Covance, against Aβ (3-8) and 4G8 against Aβ (18-22)) and visualized.

[6] = biological target: T1, Aβ (1-40); assay: Thioflavin T (ThT) fluorescence assay of Aβ aggregation; type: biochemical; conditions: 28 μM Aβ; for inhibition of ThT fluorescence increase: up to 48 h, 2.8 μM peptide or mTTR; for ThT fluorescence intensity of Aβ with peptide: 2.8 μM peptide
Procedure: as §1
ThT stock solutions were prepared in PBSA and filtered through 0.22 μm filter. The concentration of ThT was measured using an extinction coefficient of 26,620 M^−1 cm^−1 at 416 nm and the stock solution was diluted to 10 μM in PBSA prior to the measurement. Aβ alone (28 μM) and with peptides (2.8 μM) or mTTR (2.8 μM) were prepared in PBSA and incubated for 48 hr at 37° C. After 1, 5, 24 and 48 hr of incubation, 10 μL of each sample was mixed with 130 μL of 10 μM ThT and analyzed. ThT fluorescence emission was measured using a QuantaMaster spectrofluometer (PTI, Birmingham, N.J.), with excitation at 440 nm and emission spectra recorded from 460 to 500 nm. Three serial spectra were averaged for each sample and the background signal of ThT in PBSA was subtracted from the averaged data. Fluorescence intensity at a wavelength of 480 nm was compared.

[7] = Peptide self-aggregation by light scattering; type: physicochemical; conditions: 80 μM, 37° C., after 1 hr of incubation
Procedure: To further probe for self-aggregation, G16, LG3, and CG3 were incubated at 80 μM at 37° C. and analyzed by light scattering.

[8] = biological target: T1, Aβ (1-40); assay: Transmission electron microscopy of Aβ aggregates; type: biochemical; conditions: 48 h at 37° C., 28 μM Aβ, 2.8 μM peptide
Procedure: as §1
Aβ alone (28 μM) or with peptides (G16 or CG3 at 2.8 μM) were prepared in PBSA and incubated for 48 hr at 37° C. A drop of sample was placed on a pioloform-coated grid and stained with methylamine tungstate stain. Images were taken with a Philips CM120 scanning transmission electron microscope (FEI Corp., Eindhoven, The Netherlands).

[9] = biological target: T1, Aβ (1-40); assay: Filtration/sedimentation assay of Aβ aggregation; type: biochemical
Procedure: as §1
Aβ alone (30 μM) or with CG3 (3 μM) was prepared in PBSA and incubated for 24 hr at 37° C. For filtration, 175 μL of sample was filtered through 0.45 μm filter. For sedimentation, 100 μL of sample was transferred onto a separate tube and centrifuged for 30 min at 19,500 ref. The supernatant (80%) was removed. Concentrations of untreated, filtered, and centrifuged samples were measured by BCA assay (Pierce).

[10] = system: Aβ toxicity; conditions: cited from earlier work

| Substance | self-association by PICUP [1] | inhibition of Aβ toxicity (summary) [2] | interaction with Aβ (shift in cross-linked Aβ size distribution) [3] | effect on Aβ aggregation (hydrodynamic diameter, total scattered intensity) ([4]; 14 μM peptide) | protection against Aβ toxicity ([2]; 10 μM peptide) | effect on Aβ degradation by protease [5] | inhibition of ThT fluorescence increase [6] | light scattering of peptide alone [7] | further results |
| --- | --- | --- | --- | --- | --- | --- | --- | --- | --- |
| SKV^DPPTIAALLSPYSYSQ [LG2] (SKV[dP]PTIAALLSPYSYSQ) [non-cyclized 18-mer, TTR residues 106-121 grafted onto DPro-Pro template] | oligomer distribution was shifted towards lower molecular weight | nor did they affect Aβ aggregation or inhibit Aβ toxicity | do not show signs of interaction with Aβ | nor did they affect Aβ aggregation |  |  |  |  |  |
| SKVVTPPRYTIAKLLSPYSYSQ (not fully specified; also: cyclic (type not given here)) [SEQ ID NO: 17] | significantly less self-association than SEQ ID NO: 1 |  |  |  |  |  |  |  |  |
| SKVVT^DPPRYTIAALLSPYSYSQ [LG3] (SKVVT[dP]PRYTIAALLSPYSYSQ) [non-cyclized 22-mer, TTR residues 104-123 grafted onto DPro-Pro template] |  |  | interact with Aβ; also recorded: weaker compared to CG3 | little to no effect on Aβ aggregation | no protective effect | Aβ degradation was delayed | unable to inhibit the ThT fluorescence increase | did not scatter light above background |  |
| SKV^DPPTIAALLSPYSYSQ [CG2] (cyclo(SKV[dP]PTIAALLSPYSYSQ)) [cyclic 18-mer of TTR residues 106-121 grafted onto DPro-Pro template] |  | nor did they affect Aβ aggregation or inhibit Aβ toxicity | do not show signs of interaction with Aβ | did not affect Aβ aggregation; also recorded: nor did they affect Aβ aggregation | no protective effect | did not have any effect on the time course of degradation |  |  |  |
| PRRYTIAALLSPYSWSDYKDDDDK [GF, linear peptide G16 with a C-terminal FLAG tag] | some lower-molecular-weight multimers but none of the larger multimers |  | interact with Aβ | little to no effect on Aβ aggregation | no protective effect | Aβ degradation was delayed | unable to inhibit the ThT fluorescence increase |  | protection against Aβ toxicity ([2]; highest dose (40 μM)): modest protection |
| PRRYTIAALLSPYSWS [G16, 16-mer linear peptide, TTR residues 102-117, Y116W, reference compound] |  |  | interact with Aβ | increased the size of aggregates of Aβ |  | Aβ degradation was delayed; also recorded: most effective in inhibiting degradation |  | scattered light above background | protection against Aβ toxicity ([2]; highest dose tested): small but significant protection; morphology of Aβ aggregates by TEM [8]: still a large number of fibrils; effect on fraction of Aβ aggregates removable by filtration or sedimentation [9]: reduce the fraction of Aβ aggregates that can be removed by filtration or sedimentation; fold less effective than full-length TTR at protecting cells from Aβ toxicity [10]: about 25 fold; interaction with freshly prepared versus pre-aggregated Aβ ([3]; freshly prepared or 1 day pre-aggregated Aβ): showed no such selectivity; ThT fluorescence intensity of Aβ with peptide ([6]; after 5 hr): remained low; ThT fluorescence intensity of Aβ with peptide ([6]; after 24 hr): ThT-positive species were detected; intensity of scattered light of Aβ-peptide mixture ([4]; 14 μM peptide): enhanced the intensity of scattered light similarly; mean hydrodynamic size of Aβ-peptide mixture ([4]; after 5 hr, 10:1 molar excess of Aβ, 37° C.): about 120 nm |
